# Assays:
# [1] = target: human FGFR2b protein (recombinant, coated on ELISA plates) (human) (UniProt P21802); test: ELISA, plate-coated human FGFR2b
# [2] = target: human FGFR2c on cells (human) (UniProt P21802); test: flow cytometry, human FGFR2c OE cells
# Chain of human FGFR2c on cells (human) (P21802 22-821): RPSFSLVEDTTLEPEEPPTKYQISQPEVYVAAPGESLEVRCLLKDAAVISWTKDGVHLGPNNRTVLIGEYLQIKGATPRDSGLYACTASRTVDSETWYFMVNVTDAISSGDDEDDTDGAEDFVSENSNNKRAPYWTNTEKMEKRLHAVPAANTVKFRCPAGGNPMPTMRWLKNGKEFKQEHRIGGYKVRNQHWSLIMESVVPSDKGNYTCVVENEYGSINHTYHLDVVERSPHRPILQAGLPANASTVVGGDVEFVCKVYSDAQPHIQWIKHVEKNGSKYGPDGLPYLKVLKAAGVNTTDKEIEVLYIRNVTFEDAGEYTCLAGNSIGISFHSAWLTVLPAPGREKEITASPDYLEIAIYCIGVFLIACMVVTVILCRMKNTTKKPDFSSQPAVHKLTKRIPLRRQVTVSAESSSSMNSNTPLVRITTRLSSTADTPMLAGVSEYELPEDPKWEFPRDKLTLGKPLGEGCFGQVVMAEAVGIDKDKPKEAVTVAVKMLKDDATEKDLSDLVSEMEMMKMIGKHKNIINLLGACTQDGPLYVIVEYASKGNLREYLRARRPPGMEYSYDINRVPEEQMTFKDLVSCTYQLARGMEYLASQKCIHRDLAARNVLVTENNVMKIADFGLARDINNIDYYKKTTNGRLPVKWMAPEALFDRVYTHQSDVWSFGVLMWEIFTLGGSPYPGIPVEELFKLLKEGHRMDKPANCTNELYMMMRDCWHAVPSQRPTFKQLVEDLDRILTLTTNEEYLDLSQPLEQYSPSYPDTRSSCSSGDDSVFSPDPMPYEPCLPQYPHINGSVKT
substance,measurement,setting,value
Isotype IgG control CB-6 (antibody),Emax (OD450),[1],0.08 OD450
same,Emax (MFI),[2],27 MFI

# — patent US20250222125A1, “Anti-FGFR2b Antibodies, Conjugates and Methods of Use” (BeiGene, Ltd., priority 2024, published 2025)
